Measurements: patent US20240261333A1, “NOVEL TARGETS FOR ENHANCING ANTI-TUMOR IMMUNITY” (THE BROAD INSTITUTE, INC., priority 2021, published 2024)

Biological target: T1, B3GNT2 (Homo sapiens, UniProt Q9NY97)
T1 construct: The respective ORFs of candidate genes [CD274 (NM_014143), MCL1 (NM_021960), JUNB (NM_002229), and B3GNT2 (NM_006577)] were synthesized; expressed in transfected cells; host or cells: A375 melanoma cells (lentiviral ORF overexpression)
T1 sequence (Q9NY97 1-397): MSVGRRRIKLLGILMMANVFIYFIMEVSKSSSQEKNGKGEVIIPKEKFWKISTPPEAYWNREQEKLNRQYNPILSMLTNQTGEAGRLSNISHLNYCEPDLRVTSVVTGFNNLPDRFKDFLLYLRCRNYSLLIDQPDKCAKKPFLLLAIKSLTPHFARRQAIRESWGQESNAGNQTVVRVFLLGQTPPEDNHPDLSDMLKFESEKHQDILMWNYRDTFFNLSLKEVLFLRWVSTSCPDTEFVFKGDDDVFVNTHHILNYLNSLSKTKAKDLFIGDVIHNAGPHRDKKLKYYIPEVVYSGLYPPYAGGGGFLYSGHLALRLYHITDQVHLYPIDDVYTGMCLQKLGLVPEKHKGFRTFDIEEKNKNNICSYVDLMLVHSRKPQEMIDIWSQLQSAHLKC
Assay: Co-IP of FLAG-tagged B3GNT2 followed by mass spectrometry
Format: cell-based
Design: C-term IgG / C-term flag: unit not given here
Settings: Co-IP followed by mass spectrometry of B3GNT2; for C-term flag / C-term IgG: C-term tag; for C-term flag / N-term FLAG: FLAG pull-down; for C-term IgG / N-term IgG: IgG pull-down; for N-term FLAG / N-term IgG: N-term tag
Outline: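 FLAG-tagged B3GNT2 immunoprecipitated from cell lysate (HEPES, 1% Triton X-100, 150 mM NaCl) with anti-FLAG versus […], overnight at 4° C, then captured on Protein A/G magnetic beads for 4 h. Two biological replicates per condition. Peptides fractionated and analyzed by nano-LC on an Orbitrap Elite in data-dependent mode.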

Row | Molecule | C-term flag | C-term IgG | N-term FLAG | N-term IgG
1 | NAP1L1 (protein) ADIDNKEQSELDQDLDDVEEVEEEETGEETKLKARQLTVQMMQNPQILAALQERLDGLVETPTGYIESLPRVVKRRVNALKNLQVKCAQIEAKFYEEVHDLERKYAVLYQPLFDKRFEIINAIYEPTEEECEWKPDEEDEISEELKEKAKIEDEKKDEEKEDPKGIPEFWLTVFKNVDLLSDMVQEHDEPILKHLKDIKVKFSDAGQPMSFVLEFHFEPNEYFTNEVLTKTYRMRSEPDDSDPFSFDGPEIMGCTGCQIDWKKGKNVTLKTIKKKQKHKGRGTVRTVTKTVSNDSFFNFFAPPEVPESGDLDDDAEAILAADFEIGHFLRERIIPRSVLYFTGEAIEDDDDDYDEEGEEADEEGEEEGDEENDPDYDPKKDQNPAEC | 4 | 0 | 0 | 0
2 | TTC13 (protein) MAPAGCCCCCCFWGGAVAAAGAARRVLLLLLLGVLSAGLRPGALATEHYSPLSLLKQELQHRQQQEAPAGGGGCSPQSGDWGDQYSAECGESSFLNFHDSDCEPKGSSPCDSLLSLNTEKILSQAKSIAEQKRFPFATDNDSTNEELAIAYVLIGSGLYDEAIRHFSTMLQILSPLGRINEAVNDLTKAIQLQPSARLYRHRGTLYFISEDYATAHEDFQQSLELNKNQPIAMLYKGLTFFHRGLLKEAIESFKEALKQKVDFIDAYKSLGQAYRELGNFEAATESFQKALLLNQNHVQTLQLRGMMLYHHGSLQEALKNFKRCLQLEPYNEVCQYMKGLSHVAMGQFYEGIKAQTKVMLNDPLPGQKASPEYLKVKYLREYSRYLHAHLDTPLTEYNIDVDLPGSFKDHWAKNLPFLIEDYEEQPGLQPHIKDVLHQNFESYKPEVQELICVADRLGSLMQYETPGFLPNKRIHRAMGLAALEVMQAVQRTWTNSKVRMNGKTRLMQWRDMFDIAVKWRRIADPDQPVLWLDQMPARSLSRGFNNHINLIRGQVINMRYLEYFEKILHFIKDRILVYHGANNPKGLLEVREALEKVHKVEDLLPIMKFNTKTKDGFTVNTKVPSLKDQGKEYDGFTITITGDKVGNILFSVETQTTEERTQLYHAEIDALYKDLTAKGKVLILSSEFGEADAVCNLILSLVYYFYNLMPLSRGSSVIAYSVIVGALMASGKEVAGKIPKGKLVDFEAMTAPGSEAFSKVAKSWMNLKSISPSYKTLPSVSETFPTLRSMIEVLNTDSSPRCLKKL | 4 | 0 | 0 | 0
3 | JUP (protein) MEVMNLMEQPIKVTEWQQTYTYDSGIHSGANTCVPSVSSKGIMEEDEACGRQYTLKKTTTYTQGVPPSQGDLEYQMSTTARAKRVREAMCPGVSGEDSSLLLATQVEGQATNLQRLAEPSQLLKSAIVHLINYQDDAELATRALPELTKLLNDEDPVVVTKAAMIVNQLSKKEASRRALMGSPQLVAAVVRTMQNTSDLDTARCTTSILHNLSHHREGLLAIFKSGGIPALVRMLSSPVESVLFYAITTLHNLLLYQEGAKMAVRLADGLQKMVPLLNKNNPKFLAITTDCLQLLAYGNQESKLIILANGGPQALVQIMRNYSYEKLLWTTSRVLKVLSVCPSNKPAIVEAGGMQALGKHLTSNSPRLVQNCLWTLRNLSDVATKQEGLESVLKILVNQLSVDDVNVLTCATGTLSNLTCNNSKNKTLVTQNSGVEALIHAILRAGDKDDITEPAVCALRHLTSRHPEAEMAQNSVRLNYGIPAIVKLLNQPNQWPLVKATIGLIRNLALCPANHAPLQEAAVIPRLVQLLVKAHQDAQRHVAAGTQQPYTDGVRMEEIVEGCTGALHILARDPMNRMEIFRLNTIPLFVQLLYSSVENIQRVAAGVLCELAQDKEAADAIDAEGASAPLMELLHSRNEGTATYAAAVLFRISEDKNPDYRKRVSVELTNSLFKHDPAAWEAAQSMIPINEPYGDDMDATYRPMYSSDVPLDPLEMHMDMDGDYPIDTYSDGLRPPYPTADHMLA | 43 | 36 | 47 | 39
4 | CPSF7 (protein) MSEGVDLIDIYADEEFNQDPEFNNTDQIDLYDDVLTATSQPSDDRSSSTEPPPPVRQEPSPKPNNKTPAILYTYSGLRNRRAAVYVGSFSWWTTDQQLIQVIRSIGVYDVVELKFAENRANGQSKGYAEVVVASENSVHKLLELLPGKVLNGEKVDVRPATRQNLSQFEAQARKRECVRVPRGGIPPRAHSRDSSDSADGRATPSENLVPSSARVDKPPSVLPYFNRPPSALPLMGLPPPPIPPPPPLSSSFGVPPPPPGIHYQHLMPPPPRLPPHLAVPPPGAIPPALHLNPAFFPPPNATVGPPPDTYMKASAPYNHHGSRDSGPPPSTVSEAEFEDIMKRNRAISSSAISKAVSGASAGDYSDAIETLLTAIAVIKQSRVANDERCRVLISSLKDCLHGIEAKSYSVGASGSSSRKRHRSRERSPSRSRESSRRHRDLLHNEDRHDDYFQERNREHERHRDRERDRHH | 9 | 9 | 12 | 8
5 | PLOD1 (protein) KGDAKPEDNLLVLTVATKETEGFRRFKRSAQFFNYKIQALGLGEDWNVEKGTSAGGGQKVRLLKKALEKHADKEDLVILFADSYDVLFASGPRELLKKFRQARSQVVFSAEELIYPDRRLETKYPVVSDGKRFLGSGGFIGYAPNLSKLVAEWEGQDSDSDQLFYTKIFLDPEKREQINITLDHRCRIFQNLDGALDEVVLKFEMGHVRARNLAYDTLPVLIHGNGPTKLQLNYLGNYIPRFWTFETGCTVCDEGLRSLKGIGDEALPTVLVGVFIEQPTPFVSLFFQRLLRLHYPQKHMRLFIHNHEQHHKAQVEEFLAQHGSEYQSVKLVGPEVRMANADARNMGADLCRQDRSCTYYFSVDADVALTEPNSLRLLIQQNKNVIAPLMTRHGRLWSNFWGALSADGYYARSEDYVDIVQGRRVGVWNVPYISNIYLIKGSALRGELQSSDLFHHSKLDPDMAFCANIRQQDVFMFLTNRHTLGHLLSLDSYRTTHLHNDLWEVFSNPEDWKEKYIHQNYTKALAGKLVETPCPDVYWFPIFTEVACDELVEEMEHFGQWSLGNNKDNRIQGGYENVPTIDIHMNQIGFEREWHKFLLEYIAPMTEKLYPGYYTRAQFDLAFVVRYKPDEQPSLMPHHDASTFTINIALNRVGVDYEGGGCRFLRYNCSIRAPRKGWTLMHPGRLTHYHEGLPTTRGTRYIAVSFVDP | 4 | 0 | 0 | 0
